According to the Immune Epitope Database (IEDB):
pKd: −log10 of the molar value. One block for each sequence: values may come before it.

Assays:
HLA-A*32:01 = assay: IEDB peptide-MHC binding, purified MHC/competitive/radioactivity; filed as Kd, often an IC50 or EC50 that approximates it; ≥ and ≤ were set here for values at or beyond the usual limits of such assays
HLA-B*44:02 = assay: as above
HLA-A*01:01 [1] = assay: IEDB peptide-MHC binding, purified MHC/direct/fluorescence; filed as Kd, often an IC50 or EC50 that approximates it; ≥ and ≤ were set here for values at or beyond the usual limits of such assays; settings: source organism: Pseudomonas tolaasii
HLA-A*02:01 = assay: as above; settings: source organism: Pseudomonas tolaasii
HLA-A*03:01 [2] = assay: as above; settings: source organism: Pseudomonas tolaasii
HLA-A*11:01 [3] = assay: as above; settings: source organism: Pseudomonas tolaasii
HLA-A*26:01 [4] = assay: as above
HLA-A*31:01 = assay: as above; settings: source organism: Pseudomonas tolaasii
HLA-A*69:01 = assay: as above; settings: source organism: Pseudomonas tolaasii
HLA-B*07:02 = assay: as above; settings: source organism: Pseudomonas tolaasii
HLA-B*08:01 [5] = assay: as above
HLA-B*15:01 = assay: as above; settings: source organism: Pseudomonas tolaasii
HLA-B*27:05 = assay: as above; settings: source organism: Pseudomonas tolaasii
HLA-B*40:01 [6] = assay: as above; settings: source organism: Pseudomonas fluorescens
HLA-B*58:01 = assay: as above; settings: source organism: Pseudomonas tolaasii
HLA-A*02:03 = assay: IEDB peptide-MHC binding, purified MHC/competitive/radioactivity; filed as Kd, often an IC50 or EC50 that approximates it; ≥ and ≤ were set here for values at or beyond the usual limits of such assays
HLA-A*02:02 = assay: as above
HLA-A*02:06 = assay: as above
HLA-A*68:02 = assay: as above
HLA-A*01:01 [7] = assay: as above
HLA-A*26:01 [8] = assay: as above
HLA-A*29:02 = assay: as above
HLA-A*30:01 = assay: as above
HLA-A*30:02 = assay: as above
HLA-B*51:01 = assay: as above
HLA-B*40:01 [9] = assay: as above
HLA-B*08:01 [10] = assay: as above; settings: source organism: Dengue virus 1 Brazil/97-11/1997
HLA-A*03:01 [11] = assay: as above; settings: source organism: Dengue virus 4 Philippines/H241/1956
HLA-A*11:01 [12] = assay: as above; settings: source organism: Dengue virus 4 Philippines/H241/1956
HLA-B*46:01 = assay: IEDB peptide-MHC binding, purified MHC/direct/fluorescence; filed as Kd, often an IC50 or EC50 that approximates it; ≥ and ≤ were set here for values at or beyond the usual limits of such assays; settings: source organism: Yellow fever virus
[13] = source organism: Dengue virus 4 Singapore/8976/1995
[14] = source organism: Pseudomonas tolaasii
[15] = source organism: Dengue virus 1 Brazil/97-11/1997
[16] = source organism: Dengue virus 4 Philippines/H241/1956
[17] = source organism: Vaccinia virus WR
[18] = source organism: Mammarenavirus whitewaterense
[19] = source organism: Mammarenavirus machupoense
[20] = source organism: Dengue virus 1 Singapore/S275/1990
[21] = source organism: Dengue virus 2 Jamaica/1409/1983
[22] = source organism: Dengue virus 3 Martinique/1243/1999
[23] = source organism: Lassa virus Josiah
[24] = source organism: Mammarenavirus juninense
[25] = source organism: Dengue virus 3 Sri Lanka/1266/2000
[26] = source organism: Lymphocytic choriomeningitis virus (strain Armstrong)
[27] = source organism: Lymphocytic choriomeningitis virus (strain WE)
[28] = source organism: Mammarenavirus guanaritoense

Sequence: ADMGCVVSW
pKd (HLA-A*32:01; [13]): 6.38
pKd (HLA-B*44:02; [13]): 7.97

pKd (HLA-A*01:01 [1]): ≤ 4.70
pKd (HLA-A*02:01): ≤ 4.70
pKd (HLA-A*03:01 [2]): ≤ 4.70
pKd (HLA-A*11:01 [3]): ≤ 4.70
pKd (HLA-A*26:01 [4]; [14]): ≤ 4.70
pKd (HLA-A*31:01): ≤ 4.70
pKd (HLA-A*69:01): ≤ 4.70
pKd (HLA-B*07:02): ≤ 4.70
pKd (HLA-B*08:01 [5]; [14]): ≤ 4.70
pKd (HLA-B*15:01): ≤ 4.70
pKd (HLA-B*27:05): ≤ 4.70
pKd (HLA-B*40:01 [6]): 7.26
pKd (HLA-B*58:01): ≤ 4.70
Sequence: AEGTGITHL

Sequence: AEHSGTSHNI
pKd (HLA-B*44:02; [15]): 7.32

Sequence: AICSAVPTEW
pKd (HLA-B*44:02; [16]): 6.13

Sequence: ALNELPESL
pKd (HLA-A*02:03; [16]): 7.03
pKd (HLA-A*32:01; [16]): 5.85

Sequence: ALNHLVLSL
pKd (HLA-A*32:01; [17]): 7.38

Sequence: ALNIALIAV
pKd (HLA-A*02:02; [18]): 9.16
pKd (HLA-A*02:03; [18]): 9.65
pKd (HLA-A*02:06; [18]): 7.00
pKd (HLA-A*68:02; [18]): 5.51

pKd (HLA-A*68:02; source organism: Homo sapiens): ≤ 4.22
Sequence: AMKAQFERDL

Sequence: CMLNNSFYY
pKd (HLA-A*01:01 [7]; [19]): 5.75
pKd (HLA-A*26:01 [8]; [19]): 6.02
pKd (HLA-A*29:02; [19]): 8.88
pKd (HLA-A*30:01; [19]): 6.25
pKd (HLA-A*30:02; [19]): 8.26
pKd (HLA-A*32:01; [19]): 4.98

Sequence: CVMASSVLL
pKd (HLA-A*68:02; [20]): 8.84

Sequence: DFIGFGAAY
pKd (HLA-A*26:01 [4]; source organism: Mycobacterium tuberculosis variant bovis): 8.49

Sequence: DTIYPTAIY
pKd (HLA-A*26:01 [4]; source organism: Mycobacterium tuberculosis): 8.52

Sequence: EDMLKVWNRV
pKd (HLA-A*32:01; [16]): 4.71

Sequence: EPPFGDSYI
pKd (HLA-B*51:01; [21]): 6.46

Sequence: FDLCEGTTVV
pKd (HLA-B*51:01; [15]): 4.98

Sequence: FETYQLWTAL
pKd (HLA-B*40:01 [9]; [22]): 7.98
pKd (HLA-B*51:01; [22]): 5.72

Sequence: FGRAKGSRAI
pKd (HLA-B*51:01; [16]): 4.84

Sequence: FKGKTVWFVP
pKd (HLA-A*32:01; [21]): ≤ 4.16

Sequence: FSLGVLGMAL
pKd (HLA-A*02:06; [21]): 8.46
pKd (HLA-B*51:01; [21]): 5.41

Sequence: FSRGNSLSGV
pKd (HLA-B*51:01; [21]): 4.95

Sequence: FTVHADTGCA
pKd (HLA-A*68:02; [16]): 6.87

Sequence: GEWKEGEEV
pKd (HLA-B*40:01 [9]; [21]): 6.53
pKd (HLA-B*44:02; [21]): 4.79

Sequence: GEYRLKGESR
pKd (HLA-B*40:01 [9]; [22]): 5.38

Sequence: GLYKQPGVPV
pKd (HLA-A*02:02; [23]): 5.85
pKd (HLA-A*02:03; [23]): 7.62
pKd (HLA-A*02:06; [23]): 6.09
pKd (HLA-A*68:02; [23]): ≤ 5.30

Sequence: GPLIAGGMLI
pKd (HLA-B*51:01; [15]): 4.73

Sequence: GTFHTMWHV
pKd (HLA-A*02:06; [21]): 8.13
pKd (HLA-A*68:02; [21]): 7.91

Sequence: GVLEEQGSFY
pKd (HLA-A*01:01 [7]; [24]): 5.79
pKd (HLA-A*26:01 [8]; [24]): 6.65
pKd (HLA-A*29:02; [24]): 5.99
pKd (HLA-A*30:01; [24]): ≤ 4.40
pKd (HLA-A*30:02; [24]): 6.61
pKd (HLA-A*32:01; [24]): ≤ 4.16

Sequence: IDNVHTWTEQ
pKd (HLA-A*32:01; [16]): 5.01

Sequence: IENTSANLSL
pKd (HLA-B*40:01 [9]; [16]): 7.46

Sequence: ILRKATRRL
pKd (HLA-B*08:01 [5]; source organism: Influenza A virus (A/Ck/HK/CSW161/2003(H9N2))): 6.43

Sequence: IMRRRQYVL
pKd (HLA-B*08:01 [5]; source organism: Giardia lamblia ATCC 50803): 8.40

Sequence: IPPEKCDTL
pKd (HLA-B*51:01; source organism: Dengue virus 2 16681-PDK53): ≤ 4.11

Sequence: KEENLVKSM
pKd (HLA-B*40:01 [9]; [20]): 5.55

Sequence: KLGNLLLLI
pKd (HLA-A*32:01; [17]): 9.15

Sequence: LEKKITQWL
pKd (HLA-B*40:01 [9]; [25]): 6.72
pKd (HLA-B*44:02; [25]): 6.48

Sequence: LETRTETWM
pKd (HLA-B*40:01 [9]; [21]): 6.60

Sequence: LQFGFGWFSY
pKd (HLA-A*01:01 [7]; [26]): ≤ 4.15
pKd (HLA-A*26:01 [8]; [26]): 6.33
pKd (HLA-A*29:02; [26]): 7.71
pKd (HLA-A*30:01; [26]): 5.28
pKd (HLA-A*30:02; [26]): 8.30
pKd (HLA-A*32:01; [26]): 8.14

Sequence: LSVSLVLVGV
pKd (HLA-A*02:06; [21]): 7.12
pKd (HLA-A*68:02; [21]): 7.91

Sequence: LTAIANQATV
pKd (HLA-A*68:02; [21]): 7.73

Sequence: LTDNDDILM
pKd (HLA-A*01:01 [7]; [27]): 7.67
pKd (HLA-A*26:01 [8]; [27]): ≤ 4.32
pKd (HLA-A*29:02; [27]): 5.04
pKd (HLA-A*30:01; [27]): 4.72
pKd (HLA-A*30:02; [27]): 6.23
pKd (HLA-A*32:01; [27]): 4.90

Sequence: LTVAANEMGL
pKd (HLA-A*68:02; [15]): 6.70

Sequence: MAEIPLQWI
pKd (HLA-B*51:01; [22]): 5.46

Sequence: MEFIDGISLG
pKd (HLA-B*40:01 [9]; [16]): 6.86

Sequence: MEIRPISEK
pKd (HLA-B*44:02; [22]): 5.90

Sequence: MPIRYQTTA
pKd (HLA-B*08:01 [10]): 6.70
pKd (HLA-B*51:01; [15]): 5.77

Sequence: MTATPPGSV
pKd (HLA-A*68:02; [15]): 8.21

Sequence: MTCGQPLSL
pKd (HLA-A*32:01; [17]): 8.25

Sequence: MTLWYMWQVK
pKd (HLA-A*03:01 [11]): 8.11
pKd (HLA-A*11:01 [12]): 8.19
pKd (HLA-A*32:01; [16]): 6.03

Sequence: NTPEGIIPA
pKd (HLA-A*68:02; [15]): 8.04

Sequence: NTSMAMTCI
pKd (HLA-A*68:02; [16]): 6.62

Sequence: QVFGAIYGA
pKd (HLA-A*68:02; [21]): 8.71

Sequence: RIIMLNFSI
pKd (HLA-A*32:01; source organism: Vaccinia virus Copenhagen): ≤ 4.11

Sequence: RTISESNTI
pKd (HLA-A*32:01; [17]): 6.02

Sequence: RTWHYCGSY
pKd (HLA-B*46:01): ≤ 4.70

Sequence: SEVSNVQRI
pKd (HLA-B*44:02; source organism: Lymphocytic choriomeningitis virus (strain Armstrong) (clone 53b)): 7.92

Sequence: SIYRMSYQF
pKd (HLA-A*32:01; [17]): 9.10

pKd (HLA-A*68:02; source organism: Homo sapiens): 6.19
Sequence: SLIKYKKTLL

Sequence: STLELRSGY
pKd (HLA-A*26:01 [4]; source organism: Influenza A virus (A/Egypt/96/2002(H1N2))): 7.61

Sequence: SWDNTSVDLY
pKd (HLA-A*01:01 [7]; [28]): 5.89
pKd (HLA-A*26:01 [8]; [28]): ≤ 4.16
pKd (HLA-A*29:02; [28]): 6.07
pKd (HLA-A*30:01; [28]): 5.03
pKd (HLA-A*30:02; [28]): 6.83
pKd (HLA-A*32:01; [28]): ≤ 4.16

Sequence: TAIANQATV
pKd (HLA-A*68:02; [21]): 8.00

Sequence: TAYGVLFSGV
pKd (HLA-A*02:03; [15]): 7.79
pKd (HLA-A*02:06; [15]): 8.81
pKd (HLA-A*68:02; [15]): 8.29

Sequence: TEAKQPATL
pKd (HLA-B*40:01 [9]; [21]): 7.73

Sequence: TEVDRTEAK
pKd (HLA-B*44:02; [22]): ≤ 4.68

Sequence: TIAVSMANI
pKd (HLA-A*68:02; [21]): 7.47

Sequence: TTDFTRLRY
pKd (HLA-A*01:01 [7]; [28]): 8.12
pKd (HLA-A*26:01 [8]; [28]): 5.62
pKd (HLA-A*29:02; [28]): 7.23
pKd (HLA-A*30:01; [28]): 5.71
pKd (HLA-A*30:02; [28]): 6.26
pKd (HLA-A*32:01; [28]): 4.94

Sequence: VISNLVLSY
pKd (HLA-A*32:01; [17]): 6.09

Sequence: VPFCSHHFHE
pKd (HLA-B*51:01; [22]): ≤ 4.18

Sequence: VVIFILLMLV
pKd (HLA-A*02:06; [22]): 6.01
pKd (HLA-A*68:02; [22]): 6.12

Sequence: WLHRGPKEF
pKd (HLA-B*08:01 [5]; source organism: West Nile virus): 5.60

Sequence: YSEESPTEY
pKd (HLA-A*01:01 [7]; [28]): 6.65
pKd (HLA-A*26:01 [8]; [28]): ≤ 4.11
pKd (HLA-A*29:02; [28]): ≤ 4.60
pKd (HLA-A*30:01; [28]): 4.71
pKd (HLA-A*30:02; [28]): ≤ 4.11
pKd (HLA-A*32:01; [28]): ≤ 4.11
